One may read the IC50 as the concentration at which inhibition is half-maximal. A lower IC50 goes with greater potency.

The source of these data is patent publication CN116670173A (LAMCAP BIOTEST LTD, dated 2023).

Positions count from the first letter of the chain named.

To fix the notation:
B1: K2AC82 (bispecific antibody)
heavy: not shown
light 1: QSVLTQPPSVSAAPGQKVTISCSGSSSNIGYGLVSWYQQLPGTAPKLLIYGINKRPSGIPDRFSGSKSGTSATLGITGLQTGDEADYYCGTWDFSYRVDFGGGTKLTVL
light 2: not shown
notes: kappa-lambda body, human IgG1, one arm for each target; Common heavy chain and CD47 light chain are tied to the antibodies of the invention by embodiment language only; also called CD47xCEACAM5双特异性抗体K2AC82; CEACAM5xCD47双特异性抗体; not shown: lambda constant domain; probably S
B2: K2AC84 (bispecific antibody, human IgG1, kappa, lambda)
heavy: not shown
light 1: QSVLTQPPSVSAAPGQKVTISCSGSSSNIGIGLVSWYQQLPGTAPKLLIYNVNTRPSGIPDRFSGSKSGTSATLGITGLQTGDEADYYCGTWDFSYRVDFGGGTKLTVLGQPKAAPSVTLFPPSSEELQANKATLVCLISDFYPGAVTVAWKADSSPVKAGVETTTPSKQSNNKYAASSYLSLTPEQWKSHRSYSCQVTHEGSTVEKTVAPTECS
light 2: not shown
notes: kappa-lambda body, human IgG1; Common heavy chain and CD47 light chain tied by embodiment language only; also called CD47xCEACAM5双特异性抗体K2AC84; CEACAM5xCD47双特异性抗体
B3: K2AC100 (bispecific antibody, human IgG1, kappa, lambda)
heavy: not shown
light 1: B2 light 1 with I31Y, V52G, T54I
light 2: not shown
notes: kappa-lambda body, human IgG1; Common heavy chain and CD47 light chain tied by embodiment language only; also called CD47xCEACAM5双特异性抗体K2AC100; CEAxCD47双特异性抗体K2AC100
B4: K2AC91 (bispecific antibody, human IgG1, kappa, lambda)
heavy: not shown
light 1: B2 light 1 with N51T, T54N, W92F, R97G, V98I, D99V
light 2: not shown
notes: kappa-lambda body, human IgG1; Common heavy chain and CD47 light chain tied by embodiment language only; also called CD47xCEACAM5双特异性抗体K2AC91; CEACAM5xCD47双特异性抗体
B5: K2AC22 (bispecific antibody, human IgG1, kappa, lambda)
heavy: not shown
light 1: B2 light 1 with G30A, I31N, L33I, N51F, V52D, T54L, R97G, V98I, D99V
light 2: not shown
notes: Comparator from WO2019234576; also called 现有技术的双特异性CEAxCD47抗体K2AC22
B6: K2AC117 (bispecific antibody, human IgG1, kappa, lambda)
heavy: not shown
light 1: B2 light 1 with V52G, T54V
light 2: not shown
notes: kappa-lambda body, human IgG1; Common heavy chain and CD47 light chain tied by embodiment language only; also called CD47xCEACAM5双特异性抗体K2AC117; K2AC177 (as printed in some legends)

T1 sequence (Q08722 19-323): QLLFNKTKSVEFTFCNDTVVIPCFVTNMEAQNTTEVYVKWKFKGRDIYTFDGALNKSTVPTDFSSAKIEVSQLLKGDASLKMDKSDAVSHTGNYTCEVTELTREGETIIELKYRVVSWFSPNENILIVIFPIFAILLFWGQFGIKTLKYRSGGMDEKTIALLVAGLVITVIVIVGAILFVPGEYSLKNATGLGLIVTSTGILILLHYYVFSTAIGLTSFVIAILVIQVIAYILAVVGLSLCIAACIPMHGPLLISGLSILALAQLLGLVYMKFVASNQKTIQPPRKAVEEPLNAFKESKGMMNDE

The test concerns the target T1, 在MKN-45细胞表面表达的人CD47 (human, UniProt Q08722 19-323).
T1 construct: whole, on cells; MKN-45 cells also carry CEACAM5; also called hCD47; CD47 on MKN-45 cells
As to the kind of experiment: CD47/SIRPα blocking assay on MKN-45 cells, SIRPα-mouse Fc 50 ng/mL, imaging (CX5).
The molecule B1 gave an IC50 of 0.07 nM.

Molecule B2 registered an IC50 of 0.04 nM.

In turn, B3 showed an IC50 of 0.09 nM. Against the preceding molecule, the IC50 is about 2.2-fold higher.

B4: inhibition was half-maximal at 0.05 nM (IC50).

As for B5, the midpoint of inhibition, the IC50, lay at 1.2 nM.

On to B6, for which the IC50 is 0.08 nM.
